{
  "source": "paper PMC4743974",
  "about": "“Xenobiotic Compounds Degradation by Heterologous Expression of a Trametes sanguineus Laccase in Trichoderma atroviride” (PLoS ONE, 2016)",
  "proteins": {"B1": {"name": "Recombinant Lcc (TaLcc3 laccase) (Trametes sanguinea) (protein)", "chain": "AIGPKADLVISDAVVNPDGTPRDAVVVNGAFPGPLISGKKGDHFQLNVINKLTNHTMLKTTSIHWHGLFQEHTNWADGPAFVNQCPIASGHSFLYDFHVPDQAGTYWYHSHLSTQYCDGLRGPLVVYDPHDPQAHLYDVDNDDTVITLADWYHVAAKVGPQFPRGADSTLINGRGRAASDSTAELTVITVEHGKRYRFRLVSISCDPNHTFSIDGHNMTIIEVEGVNSKPLTVDSIQIFAAQRYSFMLNANQPVDNYWIRANPSGGTVGFEGGINSAILRYKGAPDAEPTNTTAPTSVIPLVETNLHPLKPMQVPGRSGIGNVDYAKTLNFNFNGTNFFINNATFTPPTVPVLLQILSGAHSAQDLLPPGSVYTLPPHSAIEITMPATTMAPGSPHPFHLHGHVFAVVRSAGSTEYNYHDPIFRDVVSTGQPGDSVTIRFMTDNPGPWFLHCHIDFHLEAGFAIVFAEDVNEIKYANPVPPSWAELCPIYDKLPESDH", "notes": "full cDNA with native signal peptide (predicted cleaved between residues 20 and 21), no tag mentioned; secreted by Trichoderma atroviride IMI206040 strain Talcc3; purified; ORF 1557 bp, 519 amino acids"}},
  "substrate": "CCn1c(=NN=c2sc3cc(S(=O)(=O)O)ccc3n2CC)sc2cc(S(=O)(=O)O)ccc21",
  "assay": "purified protein",
  "assay_type": "biochemical, Trametes sanguinea",
  "conditions": "100 mM sodium succinate pH 4, room temperature (routine assay conditions)",
  "data": [
    {"protein": "B1", "values": [
      {"measurement": "Km", "value": "48.10 ± 4.9", "unit": "µM"},
      {"measurement": "kcat", "value": "69.7 ± 3.47", "unit": "s⁻¹"},
      {"measurement": "kcat/Km", "value": "1.44e+06", "unit": "M⁻¹ s⁻¹"}
    ]}
  ]
}
